Test results taken from patent US20260216354A1, “ANTI-CMET ANTIBODY, ANTIBODY-DRUG CONJUGATE, AND PREPARATION METHOD THEREFOR AND USE THEREOF” (MEDILINK THERAPEUTICS (SUZHOU) CO., LTD., priority 2022, published 2026).

B1: ABT700-vc-MMAE (DAR9.7) (antibody, INN chains, looked up, V domains shown)
VH: QVQLVQSGAEVKKPGASVKVSCKASGYIFTAYTMHWVRQAPGQGLEWMGWIKPNNGLANYAQKFQGRVTMTRDTSISTAYMELSRLRSDDTAVYYCARSEITTEFDYWGQGTLVTVSS
VL: DIVMTQSPDSLAVSLGERATINCKSSESVDSYANSFLHWYQQKPGQPPKLLIYRASTRESGVPDRFSGSGSGTDFTLTISSLQAEDVAVYYCQQSKEDPLTFGGGTKVEIK
modifications: vc-MMAE, DAR 9.7
B2: ABT700-Vc-MMAE (DAR4) (antibody, INN chains, looked up, V domains shown)
VH: QVQLVQSGAEVKKPGASVKVSCKASGYIFTAYTMHWVRQAPGQGLEWMGWIKPNNGLANYAQKFQGRVTMTRDTSISTAYMELSRLRSDDTAVYYCARSEITTEFDYWGQGTLVTVSS
VL: DIVMTQSPDSLAVSLGERATINCKSSESVDSYANSFLHWYQQKPGQPPKLLIYRASTRESGVPDRFSGSGSGTDFTLTISSLQAEDVAVYYCQQSKEDPLTFGGGTKVEIK
modifications: vc-MMAE, DAR 4

What was measured:
[1] = target: human c-Met on tumor cells (MKN45, NCI-H358, NCI-H69, LS1034, NCI-H716, MDA-MB-468) (human) (UniProt P08581); experiment: flow cytometry on LS1034 cells
[2] = target: human c-Met on tumor cells (MKN45, NCI-H358, NCI-H69, LS1034, NCI-H716, MDA-MB-468) (human) (UniProt P08581); experiment: flow cytometry on NCI-H69 cells
[3] = target: h.cMet-ECD-His (Human HGF R/c-MET Protein, His Tag, Acrobiosystems MET-H5227) (human) (UniProt P08581); experiment: ELISA, h.cMet-ECD-His captured by anti-His-Rabbit Fc
[4] = target: human c-Met on tumor cells (MKN45, NCI-H358, NCI-H69, LS1034, NCI-H716, MDA-MB-468) (human) (UniProt P08581); experiment: flow cytometry on NCI-H358 cells
[5] = target: human c-Met on tumor cells (MKN45, NCI-H358, NCI-H69, LS1034, NCI-H716, MDA-MB-468) (human) (UniProt P08581); experiment: flow cytometry on NCI-H716 cells

Chain of human c-Met on tumor cells (MKN45, NCI-H358, NCI-H69, LS1034, NCI-H716, MDA-MB-468) (human) (P08581 25-1390): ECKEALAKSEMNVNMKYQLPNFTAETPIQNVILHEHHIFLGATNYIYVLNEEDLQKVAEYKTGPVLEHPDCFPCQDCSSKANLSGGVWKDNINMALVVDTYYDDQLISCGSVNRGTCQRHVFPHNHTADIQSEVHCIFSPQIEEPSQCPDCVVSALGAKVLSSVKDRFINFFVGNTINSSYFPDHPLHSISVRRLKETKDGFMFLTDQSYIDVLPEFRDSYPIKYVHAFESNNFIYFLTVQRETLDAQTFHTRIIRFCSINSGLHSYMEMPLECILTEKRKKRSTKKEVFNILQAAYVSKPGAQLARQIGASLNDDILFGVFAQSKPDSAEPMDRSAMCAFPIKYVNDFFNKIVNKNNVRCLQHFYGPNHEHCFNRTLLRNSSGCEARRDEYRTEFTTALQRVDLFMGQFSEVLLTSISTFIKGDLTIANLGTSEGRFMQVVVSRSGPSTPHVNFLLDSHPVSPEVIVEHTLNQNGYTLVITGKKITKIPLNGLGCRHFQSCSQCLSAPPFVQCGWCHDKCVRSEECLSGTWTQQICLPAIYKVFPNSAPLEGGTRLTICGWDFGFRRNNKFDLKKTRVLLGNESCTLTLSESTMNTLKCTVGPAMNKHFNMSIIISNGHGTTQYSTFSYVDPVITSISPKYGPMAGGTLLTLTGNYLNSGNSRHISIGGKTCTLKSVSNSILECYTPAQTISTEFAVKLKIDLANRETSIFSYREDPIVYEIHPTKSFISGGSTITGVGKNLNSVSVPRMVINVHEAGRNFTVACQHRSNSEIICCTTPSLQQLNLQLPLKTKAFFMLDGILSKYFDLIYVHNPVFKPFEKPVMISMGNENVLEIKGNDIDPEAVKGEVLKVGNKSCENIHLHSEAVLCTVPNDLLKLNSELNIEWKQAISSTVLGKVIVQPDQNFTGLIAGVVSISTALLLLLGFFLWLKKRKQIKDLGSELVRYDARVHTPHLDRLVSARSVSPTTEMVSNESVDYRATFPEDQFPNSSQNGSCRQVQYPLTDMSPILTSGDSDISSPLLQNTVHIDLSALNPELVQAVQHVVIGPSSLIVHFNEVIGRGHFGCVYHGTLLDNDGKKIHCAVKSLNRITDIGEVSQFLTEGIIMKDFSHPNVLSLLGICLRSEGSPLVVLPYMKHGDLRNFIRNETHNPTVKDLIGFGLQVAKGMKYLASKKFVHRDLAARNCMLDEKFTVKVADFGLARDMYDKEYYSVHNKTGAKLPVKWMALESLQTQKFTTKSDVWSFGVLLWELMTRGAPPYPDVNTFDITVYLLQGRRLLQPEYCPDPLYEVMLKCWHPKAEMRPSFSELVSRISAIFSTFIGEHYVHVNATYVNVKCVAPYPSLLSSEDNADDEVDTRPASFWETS
Chain of h.cMet-ECD-His (Human HGF R/c-MET Protein, His Tag, Acrobiosystems MET-H5227) (human) (P08581 25-932): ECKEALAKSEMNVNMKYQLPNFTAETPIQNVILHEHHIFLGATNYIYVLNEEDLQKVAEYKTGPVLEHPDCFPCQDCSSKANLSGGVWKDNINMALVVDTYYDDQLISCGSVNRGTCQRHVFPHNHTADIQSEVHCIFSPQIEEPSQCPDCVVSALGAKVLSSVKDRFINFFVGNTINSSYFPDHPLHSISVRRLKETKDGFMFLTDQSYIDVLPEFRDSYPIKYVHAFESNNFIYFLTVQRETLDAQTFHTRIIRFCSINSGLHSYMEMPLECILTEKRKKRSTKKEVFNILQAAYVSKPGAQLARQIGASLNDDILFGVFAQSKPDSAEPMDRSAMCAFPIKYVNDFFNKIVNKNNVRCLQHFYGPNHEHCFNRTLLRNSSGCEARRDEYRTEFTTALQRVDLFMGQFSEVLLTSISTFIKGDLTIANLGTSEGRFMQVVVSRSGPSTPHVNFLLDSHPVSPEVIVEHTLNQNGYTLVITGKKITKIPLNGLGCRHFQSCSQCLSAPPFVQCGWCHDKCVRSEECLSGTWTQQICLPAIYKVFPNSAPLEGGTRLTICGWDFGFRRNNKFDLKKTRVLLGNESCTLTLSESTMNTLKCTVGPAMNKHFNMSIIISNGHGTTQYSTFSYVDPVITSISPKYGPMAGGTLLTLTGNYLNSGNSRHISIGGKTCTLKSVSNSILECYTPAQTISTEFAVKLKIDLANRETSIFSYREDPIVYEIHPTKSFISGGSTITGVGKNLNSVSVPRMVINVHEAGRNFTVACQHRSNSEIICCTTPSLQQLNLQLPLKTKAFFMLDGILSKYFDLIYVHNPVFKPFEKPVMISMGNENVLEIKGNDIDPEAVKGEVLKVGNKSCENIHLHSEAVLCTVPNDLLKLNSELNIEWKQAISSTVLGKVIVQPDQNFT

Row | Binder | EC50 [1] | Maximum signal value [1] | EC50 [2] | Maximum signal value [2] | EC50 [3] | EC50 [4] | Maximum signal value [4] | EC50 [5] | Maximum signal value [5]
1 | B1 | 0.852 nM | 8960 | 0.212 nM | 8210 | 2.43 µg/mL | 0.917 nM | 32400 |  | 
2 | B2 |  |  |  |  |  |  |  | 11.6 nM | 3740
